Publication PMC8092406 (Proceedings of the National Academy of Sciences of the …, 2021)

B1: Cp149, CTD-less HBV core protein (domain or fragment)
chain: MDIDPYKEFGATVELLSFLPSDFFPSVRDLLDTASALYREALESPEHCSPHHTALRQAILCWGELMTLATWVGVNLEDPASRDLVVSYVNTNMGLKFRQLLWFHISCLTFGRETVIEYLVSFGVWIRTPPAYRPPNAPILSTLPETTVV
B2: Cp183-F97L (natural protein)
chain: MDIDPYKEFGATVELLSFLPSDFFPSVRDLLDTASALYREALESPEHCSPHHTALRQAILCWGELMTLATWVGVNLEDPASRDLVVSYVNTNMGLKLRQLLWFHISCLTFGRETVIEYLVSFGVWIRTPPAYRPPNAPILSTLPETTVVRRRGRSPRRRTPSPRRRRSQSPRRRRSQSRESQC

Target: the molecule itself
Experiment: negative-stain electron microscopy

Protein | binding result
B1 | binds
B2 | binds
